Laboratory results from patent US11994512B2, “Single-cell genomic methods to generate ex vivo cell systems that recapitulate in vivo biology with improved fidelity” (Massachusetts Institute of Technology, priority 2018, dated 2024).

B1: Q8C159 (protein, UniProt Q8C159 1-568, looked up)
chain: MTEAEVGAEDLDTLLDELDYLPGHFHLEMQLNFEPRSPAQLRARDLKLQREGLRQELELVATPQLPAVRHLLGTFSFYLEELGDAREHFLEVARKDPGNLNAWANLAHVYGQLGQEEEEEASAGRLASLMGLEGDPEDAGDPRLRAARCLAEQGYAHGFDVGCASPEERAQVLEAGIALYDKALGYGQQIPIEEKRSWYFTMATLFIRLDGIFLEMGSEEQKRLPAFNRTLALLGEVLKSSDSRHQALAWCYVGMLLERKDTFSTTPMGVHEYGYSGTEPLDCFGKAIEIAKNQPPILNRLAKIFHFLGKQDMAVGTCNMVLAVLTDPELNWQAYCTRAKVRIRAYVHDLERAKVGLGGLPDRNHLACAKADLEEVVKVCPSLRTYLDISQVYYYMGVDAMRELLAVDEAALNQALVFLAKAGELELGDTLPELQLLRGKCLRVQGEDANAAACFKRAVELDDEGSSHTEGFGCLLEALLAQWSQAQLSDGEVGYEVDVWLRHAQGKYPAARLRQELQRVWRGHTEEVLGLARALVAQGRPALVRLLFETMEHEGEDAGGSGKSRVSS
modifications: full-length
B2: Q8BPQ7 (protein, UniProt Q8BPQ7 1-1093, looked up)
chain: MASVPAEAETRQRLLRTVKKEVKQIMEEAVTRKFVHEDSSHIISFCAAVEACVLHGLRRRAAGFLRSNKIAALFMKVGKGFPPAEELSRKVQELEQLIESARNQIQGLQENVRKLPKLPNLSPLAIKHLWIRTALFGRVLDKIVHYLVENSSKYYEKEALLMDPVDGPILASLLVGPCALEYTKMKTADHFWTDPSADELVQRHRIHSSHLRQDSPTKRPALCIQKRHSSGSMDDRPSISARDYVESLHQDSRATLLYGKNNVLVQPRDDMEAVPGYLSLHQTADVMTLKWTPNQLMNGSVGDLDYEKSVYWDYAVTIRLEEIVYLHCHQQVDSGGTVVLVSQDGIQRPPFRFPKGGHLLQFLSCLENGLLPHGQLDPPLWSQRGKGKVFPKLRKRSPQGSSESTSSDKEDDEATDYVFRIIYPGTQSEFVPQDLMDVSMNNLPPLWQPSPRKSSCSSCSQSGSADGGSTNGCNHERAPLKLLCDNMKYQILSRAFYGWLAYCRHLSTVRTHLSALVNHMIVSPDLPCDAGQGLTASIWEKYIQDSTTYPEQELLRLIYYGGVQPEIRRAVWPFLLGHYQFGMTEMERKEVDEQIHACYAQTMSEWLGCEAIVRQRERESHAAALAKCSSGASLDSHLHRMLHRDSTISNESSQSCSSGRQNLRLQSDSSSSTQVFESVDEVEQTEAEGRSEEKHPKIPNGNPANGTCSPDSGHPSSHNFSSGLSEHSEPSLSTEDSVLDAQRSLPAVFRPGDSSVEDGQSSEATTSRDEAPREELAVQDSLESDLLANESLEEFMSIPGSLDVALPEKDGAVMDGWPGEADKPSRADSEDNLSEEPEMESLFPALASLAVTSSANNEASPVSSSGVTYSPELLDLYTVNLHRIEKDVQRCDRSYWYFTAANLEKLRNIMCSYIWQHIEIGYVQGMCDLLAPLLVILDDEALAFSCFTELMKRMNQNFPHGGAMDTHFANMRSLIQILDSELFELMHQNGDYTHFYFCYRWFLLDFKRELVYDDVFSVWETIWAAKHVSSAHYVLFIALALVEVYRDIILENNMDFTDIIKFFNEMAERHNAKQILQLARDLVHKVQILIENK
modifications: full-length
B3: Q8BW75 (protein, UniProt Q8BW75 1-520, looked up)
chain: MSNKSDVIVVGGGISGMAAAKLLHDCGLSVVVLEARDRVGGRTYTIRNKNVKYVDLGGSYVGPTQNRILRLAKELGLETYKVNEVERLIHFVKGKSYAFRGPFPPVWNPITYLDNNNLWRTMDEMGQEIPSDAPWKAPLAEEWDYMTMKELLDKICWTKSTKQIATLFVNLCVTAETHEVSALWFLWYVKQCGGTTRIISTTNGGQERKFIGGSGQVSERIKDILGDRVKLERPVIHIDQTGENVIVKTLNHEIYEAKYVISAIPPALGMKIHYSPPLPMLRNQLISRVPLGSVIKCMVYYKEPFWRKKDFCGTMVIEGEEAPIAYTLDDTKPDGTYAAIMGFILAHKARKLVRLTKEERLRKLCELYAKVLNSQEALQPVHYEEKNWCEEQYSGGCYTTYFPPGILTQYGRVLRQPVGKIFFAGTETASHWSGYMEGAVEAGERAAREILHAIGKIPEDEIWQPEPESLDVPARPITSTFLERHLPSVPGLLKLFGLTTILSATALGFLAHKRGLFVHF
modifications: full-length
B4: Q8BZ20 (protein, UniProt Q8BZ20 1-711, looked up)
chain: MAQAAVAVAEVTQLLCAAGGALELAELRRRLRTSLGTDALERLLRDCGRFVVASRAVVAVGAGREAAAAASERLVLAVSSLRLCRAHQGPKPGCTGLCAQLHLCKFLIYGNCKFLKTGKNCRNGHNLKTDHNLSVLRTHGVDHLTYTELCQLLLQNDPSLLPDICLHYNKGDGPFGSCSFQKQCIKLHICQYFLQGECKFGTSCKRSHEFTNSESLEQLERLGLSSDLVSRLLSTYRNAYDIKNKGSALSKVSPSPAGPQGSSERKDSSGPVSPGTPSQEESEQICLYHIRKSCSFQEKCHRVHFHLPYRWQFLDGGKWKDLDNMELIEEAYSNPSKDRIVYTESAAGFHFDNLDFNSMKFGNTLARRLSTASSVTKPPHFILTTDWIWYWMDEFGSWQEYGRQGSGHPVTTISSSDVERAYLAFCAPGADAQAATLKFQAGKHNYELHFKAFLQKNLVYGTIRKVCRRPKYVSPQDVQMKQSCNTKLHGPKSIPDYWDPAALPDLGFKKITLSSSSEEYQKVWNIFNRTLPFYFVQKIERIQNMGLWEVYQWQKCQMQKQNGGKEVDERQLFHGTSANFVDAICQQNFDWRVCGLHGTSYGKGSYFARDAAYSHHYSKSDTHSHMMFLARVLVGDFVRGSTSFVRPPAKEGQSNAFYDSCVNSMSDPTIFVVFEKHQVYPEYLIQYSTSSKPPASPSIFVALGNLFTSRQ
modifications: full-length
B5: Q8BM96 (protein, UniProt Q8BM96 1-785, looked up)
chain: MRSCRSCNVRVLVAIVCGLLTGIVLGLGIWRMVIRINRGIFVPVPSIPVQFCRNGGTWQNGRCICTEEWKGLRCTIANFCENSTDGEFTFGSIPVGRYGPSLQTCEPGTLNAGSPKATRLCNVSEFGNIELQNVTKGSCNINLQTLEIQINNQTASAENISREAQVLTADASKLTAQNITSATTVVGQIFGKANNESQAKKTAIATVSQILDASEDVFQKAAEMDNSKSFSNLIKQMENYSYSQGDQTVVEPNIAIQSVTRDDNSGPSVLFSVQKGSSNSLVSGRILINKTANGLNPDGQTELQILLNTGENRKSCGFMVYQNHKLFQSKTFTATSDFSQKIISSKINESEQQRQNKVSVEMVFNPTYDKRELRLHSYACVYWNFLINDWDTQGCQKTGNTTEFLRCNCSHTTNFAVLMSFKKDYKYPKSLDILSNIGCALSIAGLALTILFQILTRKIRKTSVTWVLVSLCSSMLIFNLLFVFGIENSNKNLKTSDSDINVKPENNKIPESDTIETPNPSCTAIAALLHYFLLVTFTWNGLSATQLYFLLIRTMKPLPRHFIIFISLVGWGVPAIIVGVTIGSIYALSGNKRYWELDYRQEEICWLAVPKDNDYARSPLLWSFIIPVTIILITNITIFVIITVKVLWKNNQNLTSTKKVSSLKKVFSTLSIAVVFGVTWILAYAMLISNDDIRIVFSYIFCLFNTTQGLQIFILYTVRTKVFQSEASKILKSLSSSFDRTKPMPSITPLKLRVRMYNMLRSLPSLNERFRLLEPSGMTEETSLS
modifications: full-length

tested on: intracellular proteome of ENR+CD and ENR organoids; experiment: LC-MS/MS TMT proteomics of ENR+CD versus ENR organoids; format: cell-based, C57BL/6 mice; conditions: ENR+CD versus ENR organoids, sample pairs in aggregate (n=4, 2 technical replicates from two biological donors)

Molecule | Average logFC
B1 | −1.177
B2 | 1.34
B3 | −1.176
B4 | 1.138
B5 | −1.142

same assay, conditions: protein abundance ratio ENR+CD versus ENR organoids, sample pair M1-1; LC-MS/MS TMT proteomics

Molecule | M1-1 Log2 Median Normalized
B1 | −0.633
B2 | 1.5
B3 | −0.94
B4 | 1.138
B5 | −0.895

same assay, conditions: protein abundance ratio ENR+CD versus ENR organoids, sample pair M1-2; LC-MS/MS TMT proteomics

Molecule | M1-2 Log2 Median Normalized
B1 | −1.446
B2 | 0.707
B3 | −1.056
B4 | 0.69
B5 | −1.193

same assay, conditions: protein abundance ratio ENR+CD versus ENR organoids, sample pair M2-1; LC-MS/MS TMT proteomics

Molecule | M2-1 Log2 Median Normalized
B1 | −1.1765
B2 | 1.4015
B3 | −1.8625
B4 | 1.1465
B5 | −1.2285

same assay, conditions: protein abundance ratio ENR+CD versus ENR organoids, sample pair M2-2; LC-MS/MS TMT proteomics

Molecule | M2-2 Log2 Median Normalized
B1 | −1.271
B2 | 1.339
B3 | −1.177
B4 | 1.295
B5 | −1.142

same assay, conditions: up = enriched in ENR+CD, down = enriched in ENR; FDR<0.05 and log fold change cut-off

Molecule | change
B1 | down
B2 | up
B3 | down
B4 | up
B5 | down
